Tests used:
human GM-CSF [1] = biological target: T1, human GM-CSF (human, UniProt P04141 18-144); assay: cell-based or functional assay
human GM-CSF [2] = biological target: T1, human GM-CSF; assay: solution equilibrium titration (SET, ECL/BioVeris), Fab with human GM-CSF (Leucomax) in solution
human GM-CSF [3] = biological target: T1, human GM-CSF; assay: SPR (Biacore), Fab over immobilized recombinant human GM-CSF (Peprotech), F1 chip; affinity estimated from off-rates
Protocol: A respective amount of HSA was immobilized on the reference flow cell. […] Fab was applied in concentration series of 6.3-200 nM at a flow rate of 20 μl/min.

human GM-CSF [4] = biological target: T1, human GM-CSF; assay: FACS receptor inhibition assay: inhibition of binding of 0.5 µg/ml biotinylated GM-CSF to GM-CSF receptor alpha on CHO-GMRa#11 cells
Protocol: (§1) All stainings were performed in round bottom 96-well culture plates (Nalge Nunc) with 1-5×10⁵ cells per well. […] Cells were then washed once with 150 μl FACS buffer/well and taken up in 100 μl phycoerythrin-labeled streptavidin (BD Biosciences Pharmingen) which has been diluted 1:400 in FACS buffer. […] IC₅₀ values were determined from the dose response curves obtained using GraphPad Prism v3.03 software applying a non-linear regression curve fit.
(§2) IC₅₀ values were determined from the dose response curves obtained using GraphPad Prism v3.03 software applying a non-linear regression curve fit.

human GM-CSF [5] = biological target: T1, human GM-CSF; assay: FACS receptor inhibition assay: antibody pre-incubated with 0.5 µg/ml biotinylated GM-CSF, binding to GM-CSF receptor alpha on CHO-GMRa#11 cells
Protocol: as §1, §2

T1 sequence (P04141 18-144): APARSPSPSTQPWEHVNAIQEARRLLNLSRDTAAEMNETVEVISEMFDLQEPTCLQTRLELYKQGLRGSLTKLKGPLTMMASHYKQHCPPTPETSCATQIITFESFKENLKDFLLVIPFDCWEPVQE

Row | Binder | IC50 (pM) in TF-1 proliferation assay, human GM-CSF 0.25 ng/ml (human GM-CSF [1]) | IC50 x-fold improved compared to BVD2-21C11, TF-1 proliferation assay (human GM-CSF [1]) | IC50 x-fold improved compared to Mab215, TF-1 proliferation assay (human GM-CSF [1]) | Kd (human GM-CSF [2]) | Kd (human GM-CSF [3]) | % inhibition at 5 µg/ml antibody (human GM-CSF [4]) | IC50 (human GM-CSF [5])
1 | MOR04251 Fab (Fab, V domains shown) VH: QVQLVESGGGLVQPGGSLRLSCAASGFTFSSHWMSWVRQAPGKGLEWVSNIWRGPYIYYADSVKGRFTISRDNSKNTLYLQMNSLRAEDTAVYYCARFQGYGGGFDYWGQGTLVTVSS VL: DIELTQPPSVSVAPGQTARISCSGDNLPGKYVHWYQQKPGQAPVLVIYYDSNRPSGIPERFSGSNSGNTATLTISGTQAEDEADYYCQSRTQTTIVFGGGTKLTVLG | 463 pM | 14.2 fold | 9.3 fold | 0.0074 nM | 0.07 nM | ~100% | 53 nM
2 | MOR04252 Fab (Fab, V domains shown, Fab with FLAG and 6xHis tags) VH: QVQLVESGGGLVQPGGSLRLSCAASGFTFSSYWMNWVRQAPGKGLEWVSGIENKYAGGATYYAASVKGRFTISRDNSKNTLYLQMNSLRAEDTAVYYCARGFGTDFWGQGTLVTVSS VL: DIELTQPPSVSVAPGQTARISCSGDSIGKKYAYWYQQKPGQAPVLVIYKKRPSGIPERFSGSNSGNTATLTISGTQAEDEADYYCSSWDSTGLVFGGGTKLTVLG | 2010 pM | 3.2 fold | 2.1 fold | 0.006 nM | 0.055 nM | ~75% | 26 nM
3 | MOR04287 Fab (Fab, V domains shown, Fab with FLAG and 6xHis tags) VH: QVQLVESGGGLVQPGGSLRLSCAASGFTFSSYWMNWVRQAPGKGLEWVSGIENKRAGGATFYAASVKGRFTISRDNSKNTLYLQMNSLRAEDTAVYYCARGFGTDFWGQGTLVTVSS VL: DIELTQPPSVSVAPGQTARISCSGDSIGKKYAYWYQQKPGQAPVLVIYKKRPSGIPERFSGSNSGNTATLTISGTQAEDEADYYCSSWDSTGLVFGGGTKLTVLG | 3380 pM | 1.9 fold | 1.3 fold | 0.0179 nM |  | ~75% | 25 nM
4 | MOR04290 Fab (Fab, V domains shown, Fab with FLAG and 6xHis tags) VH: QVQLVESGGGLVQPGGSLRLSCAASGFTFSSYWMNWVRQAPGKGLEWVSGIESKWAGGATYYAAGVKGRFTISRDNSKNTLYLQMNSLRAEDTAVYYCARGFGTDFWGQGTLVTVSS VL: DIELTQPPSVSVAPGQTARISCSGDSIGKKYAYWYQQKPGQAPVLVIYKKRPSGIPERFSGSNSGNTATLTISGTQAEDEADYYCSSWDSTGLVFGGGTKLTVLG | 696 pM | 9.4 fold | 6.2 fold | 0.0111 nM | 0.122 nM | ~75% | 27 nM
5 | MOR04302 Fab (Fab, V domains shown, Fab with FLAG and 6xHis tags) VH: QVQLVESGGGLVQPGGSLRLSCAASGFTFSSYWMNWVRQAPGKGLEWVSGISYSGSETYYADSVKGRFTISRDNSKNTLYLQMNSLRAEDTAVYYCARGFGTDFWGQGTLVTVSS VL: DIELTQPPSVSVAPGQTARISCSGDSIGKKYAYWYQQKPGQAPVLVIYKKRPSGIPERFSGSNSGNTATLTISGTQAEDEADYYCSAWGDKGMVFGGGTKLTVLG | 10700 pM |  |  | 0.0635 nM | 0.174 nM | ~75% | 24 nM

Source: patent US20090053213A1 (MorphoSys, published 2009)
